Test system: ACE-2 inhibitor peptide (the most active ACE-2 inhibitor peptide)

Substance: Angiotensin converting enzyme (ACE)
- hydrolysis of the substrate hip-his-leu (250 mM) by ACE (1.5 nM): the inhibitor did not affect the hydrolysis of the substrate, hip-his-leu (250 mM) by ACE (1.5 nM), even at 25 mM

Substance: recombinant human ACE-2
- conversion of angiotensin I to A1-9 by ACE-2: This peptide also inhibited conversion of angiotensin I to A1-9 by ACE-2
